The source of these data is PMC12392869 (2025).

One may read the Kd as the free concentration of one partner at which half of the binding sites on the other are occupied at equilibrium, for simple one-to-one binding.

This assay addresses biotinylated NeoNectin candidate 1 (NN-C1) (biotin (N-terminal biotin; enzymatic biotinylation of the Avi-tag)). Kind of assay: BLI. For orientation: In BLI a coated tip is dipped into the sample, and binding shifts an interference pattern.

B1: integrin αvβ8 ectodomain (complex)
chain 1: FNLDVDSPAEYSGPEGSYFGFAVDFFVPSASSRMFLLVGAPKANTTQPGIVEGGQVLKCDWSSTRRCQPIEFDATGNRDYAKDDPLEFKSHQWFGASVRSKQDKILACAPLYHWRTEMKQEREPVGTCFLQDGTKTVEYAPCRSQDIDADGQGFCQGGFSIDFTKADRVLLGGPGSFYWQGQLISDQVAEIVSKYDPNVYSIKYNNQLATRTAQAIFDDSYLGYSVAVGDFNGDGIDDFVSGVPRAARTLGMVYIYDGKNMSSLYNFTGEQMAAYFGFSVAATDINGDDYADVFIGAPLFMDRGSDGKLQEVGQVSVSLQRASGDFQTTKLNGFEVFARFGSAIAPLGDLDQDGFNDIAIAAPYGGEDKKGIVYIFNGRSTGLNAVPSQILEGQWAARSMPPSFGYSMKGATDIDKNGYPDLIVGAFGVDRAILYRARPVITVNAGLEVYPSILNQDNKTCSLPGTALKVSCFNVRFCLKADGKGVLPRKLNFQVELLLDKLKQKGAIRRALFLYSRSPSHSKNMTISRGGLMQCEELIAYLRDESEFRDKLTPITIFMEYRLDYRTAADTTGLQPILNQFTPANISRQAHILLDCGEDNVCKPKLEVSVDSDQKKIYIGDDNPLTLIVKAQNQGEGAYEAELIVSIPLQADFIGVVRNNEALARLSCAFKTENQTRQVVCDLGNPMKAGTQLLAGLRFSVHQQSEMDTSVKFDLQIQSSNLFDKVSPVVSHKVDLAVLAAVEIRGVSSPDHVFLPIPNWEHKENPETEEDVGPVVQHIYELRNNGPSSFSKAMLHLQWPYKYNNNTLLYILHYDIDGPMNCTSDMEINPLRIKISSLQTTEKNDTVAGQGERDHLITKRDLALSEGDIHTLGCGVAQCLKIVCQVGRLDRGKSAILYVKSLLWTETFMNKENQNHSYSLKSSASFNVIEFPYKNLPIEDITNSTLVTTNVTWGIQPAPMPV
chain 2: EDNRCASSNAASCARCLALGPECGWCVQEDFISGGSRSERCDIVSNLISKGCSVDSIEYPSVHVIIPTENEINTQVTPGEVSIQLRPGAEANFMLKVHPLKKYPVDLYYLVDVSASMHNNIEKLNSVGNDLSRKMAFFSRDFRLGFGSYVDKTVSPYISIHPERIHNQCSDYNLDCMPPHGYIHVLSLTENITEFEKAVHRQKISGNIDTPEGGFDAMLQAAVCESHIGWRKEAKRLLLVMTDQTSHLALDSKLAGIVVPNDGNCHLKNNVYVKSTTMEHPSLGQLSEKLIDNNINVIFAVQGKQFHWYKDLLPLLPGTIAGEIESKAANLNNLVVEAYQKLISEVKVQVENQVQGIYFNITAICPDGSRKPGMEGCRNVTSNDEVLFNVTVTMKKCDVTGGKNYAIIKPIGFNETAKIHIHRNCSCQCEDNRGPKGKCVDETFLDSKCFQCDENKCHFDEDQFSSESCKSHKDQPVCSGRGVCVCGKCSCHKIKLGKVYGKYCEKDDFSCPYHHGNLCAGHGECEAGRCQCFSGWEGDRCQCPSAAAQHCVNSKGQVCSGRGTCVCGRCECTDPRSIGRFCEHCPTCYTACKENWNCMQCLHPHNLSQAILDQCKTSCALMEQQHYVDQTSECFSSPSYLR
Molecule B1 registered a Kd of 1000 nM.
